Consider six molecules from US20140213513A1 (Sanofi, priority 2012, published 2014).

To fix the notation:
T1: human GIP receptor (human, UniProt P48546 22-466)
T1 sequence (looked up): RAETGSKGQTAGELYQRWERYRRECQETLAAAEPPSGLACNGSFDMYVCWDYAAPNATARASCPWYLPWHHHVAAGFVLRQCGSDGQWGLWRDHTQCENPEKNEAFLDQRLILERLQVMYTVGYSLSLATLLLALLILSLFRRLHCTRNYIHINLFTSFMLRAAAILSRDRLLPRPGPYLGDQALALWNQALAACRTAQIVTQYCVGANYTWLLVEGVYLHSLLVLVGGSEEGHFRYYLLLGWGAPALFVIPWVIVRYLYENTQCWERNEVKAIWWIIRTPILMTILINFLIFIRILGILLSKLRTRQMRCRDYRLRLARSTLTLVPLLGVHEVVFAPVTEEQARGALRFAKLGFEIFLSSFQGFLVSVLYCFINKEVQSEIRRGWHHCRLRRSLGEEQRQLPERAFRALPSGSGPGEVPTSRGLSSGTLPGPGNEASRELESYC

B1: exendin-4 peptide analogue SEQ ID NO: 19 (peptide)
peptide: Y[Aib]QGTFTSDLSIQK([γGlu-Palmitoyl])EKRLA[Aib]EFIEWLKNTGPSSGAPPPS-NH2
modifications: N-terminus assumed
SMILES: CCCCCCCCCCCCCCCC(=O)N[C@@H](CCC(=O)NCCCC[C@H](NC(=O)[C@H](CCC(N)=O)NC(=O)[C@@H](NC(=O)[C@H](CO)NC(=O)[C@H](CC(C)C)NC(=O)[C@H](CC(=O)O)NC(=O)[C@H](CO)NC(=O)[C@@H](NC(=O)[C@H](Cc1ccccc1)NC(=O)[C@@H](NC(=O)CNC(=O)[C@H](CCC(N)=O)NC(=O)C(C)(C)NC(=O)[C@@H](N)Cc1ccc(O)cc1)[C@@H](C)O)[C@@H](C)O)[C@@H](C)CC)C(=O)N[C@@H](CCC(=O)O)C(=O)N[C@@H](CCCCN)C(=O)N[C@@H](CCCNC(=N)N)C(=O)N[C@@H](CC(C)C)C(=O)N[C@@H](C)C(=O)NC(C)(C)C(=O)N[C@@H](CCC(=O)O)C(=O)N[C@@H](Cc1ccccc1)C(=O)N[C@H](C(=O)N[C@@H](CCC(=O)O)C(=O)N[C@@H](Cc1c[nH]c2ccccc12)C(=O)N[C@@H](CC(C)C)C(=O)N[C@@H](CCCCN)C(=O)N[C@@H](CC(N)=O)C(=O)N[C@H](C(=O)NCC(=O)N1CCC[C@H]1C(=O)N[C@@H](CO)C(=O)N[C@@H](CO)C(=O)NCC(=O)N[C@@H](C)C(=O)N1CCC[C@H]1C(=O)N1CCC[C@H]1C(=O)N1CCC[C@H]1C(=O)N[C@@H](CO)C(N)=O)[C@@H](C)O)[C@@H](C)CC)C(=O)O
B2: exendin-4 peptide analogue SEQ ID NO: 20 (peptide)
peptide: Y[Aib]EGTFTSDLSIQK([γGlu-Palmitoyl])EKRAA[Aib]EFIEWLKRAGPSSGAPPPS-NH2
modifications: N-terminus assumed
SMILES: CCCCCCCCCCCCCCCC(=O)N[C@@H](CCC(=O)NCCCC[C@H](NC(=O)[C@H](CCC(N)=O)NC(=O)[C@@H](NC(=O)[C@H](CO)NC(=O)[C@H](CC(C)C)NC(=O)[C@H](CC(=O)O)NC(=O)[C@H](CO)NC(=O)[C@@H](NC(=O)[C@H](Cc1ccccc1)NC(=O)[C@@H](NC(=O)CNC(=O)[C@H](CCC(=O)O)NC(=O)C(C)(C)NC(=O)[C@@H](N)Cc1ccc(O)cc1)[C@@H](C)O)[C@@H](C)O)[C@@H](C)CC)C(=O)N[C@@H](CCC(=O)O)C(=O)N[C@@H](CCCCN)C(=O)N[C@@H](CCCNC(=N)N)C(=O)N[C@@H](C)C(=O)N[C@@H](C)C(=O)NC(C)(C)C(=O)N[C@@H](CCC(=O)O)C(=O)N[C@@H](Cc1ccccc1)C(=O)N[C@H](C(=O)N[C@@H](CCC(=O)O)C(=O)N[C@@H](Cc1c[nH]c2ccccc12)C(=O)N[C@@H](CC(C)C)C(=O)N[C@@H](CCCCN)C(=O)N[C@@H](CCCNC(=N)N)C(=O)N[C@@H](C)C(=O)NCC(=O)N1CCC[C@H]1C(=O)N[C@@H](CO)C(=O)N[C@@H](CO)C(=O)NCC(=O)N[C@@H](C)C(=O)N1CCC[C@H]1C(=O)N1CCC[C@H]1C(=O)N1CCC[C@H]1C(=O)N[C@@H](CO)C(N)=O)[C@@H](C)CC)C(=O)O
B3: exendin-4 peptide analogue SEQ ID NO: 23 (peptide)
peptide: Y[Aib]QGTFTSDLSIQK([γGlu-Palmitoyl])EKRAA[Aib]YFIEWLKNTGPSSGAPPPS-NH2
modifications: N-terminus assumed
SMILES: CCCCCCCCCCCCCCCC(=O)N[C@@H](CCC(=O)NCCCC[C@H](NC(=O)[C@H](CCC(N)=O)NC(=O)[C@@H](NC(=O)[C@H](CO)NC(=O)[C@H](CC(C)C)NC(=O)[C@H](CC(=O)O)NC(=O)[C@H](CO)NC(=O)[C@@H](NC(=O)[C@H](Cc1ccccc1)NC(=O)[C@@H](NC(=O)CNC(=O)[C@H](CCC(N)=O)NC(=O)C(C)(C)NC(=O)[C@@H](N)Cc1ccc(O)cc1)[C@@H](C)O)[C@@H](C)O)[C@@H](C)CC)C(=O)N[C@@H](CCC(=O)O)C(=O)N[C@@H](CCCCN)C(=O)N[C@@H](CCCNC(=N)N)C(=O)N[C@@H](C)C(=O)N[C@@H](C)C(=O)NC(C)(C)C(=O)N[C@@H](Cc1ccc(O)cc1)C(=O)N[C@@H](Cc1ccccc1)C(=O)N[C@H](C(=O)N[C@@H](CCC(=O)O)C(=O)N[C@@H](Cc1c[nH]c2ccccc12)C(=O)N[C@@H](CC(C)C)C(=O)N[C@@H](CCCCN)C(=O)N[C@@H](CC(N)=O)C(=O)N[C@H](C(=O)NCC(=O)N1CCC[C@H]1C(=O)N[C@@H](CO)C(=O)N[C@@H](CO)C(=O)NCC(=O)N[C@@H](C)C(=O)N1CCC[C@H]1C(=O)N1CCC[C@H]1C(=O)N1CCC[C@H]1C(=O)N[C@@H](CO)C(N)=O)[C@@H](C)O)[C@@H](C)CC)C(=O)O
B4: exendin-4 peptide analogue SEQ ID NO: 22 (peptide)
peptide: Y[Aib]QGTFTSDLSIQK([γGlu-Palmitoyl])EKRA[Aib][Aib]EFIEWLKNTGPSSGAPPPS-NH2
modifications: N-terminus assumed
SMILES: CCCCCCCCCCCCCCCC(=O)N[C@@H](CCC(=O)NCCCC[C@H](NC(=O)[C@H](CCC(N)=O)NC(=O)[C@@H](NC(=O)[C@H](CO)NC(=O)[C@H](CC(C)C)NC(=O)[C@H](CC(=O)O)NC(=O)[C@H](CO)NC(=O)[C@@H](NC(=O)[C@H](Cc1ccccc1)NC(=O)[C@@H](NC(=O)CNC(=O)[C@H](CCC(N)=O)NC(=O)C(C)(C)NC(=O)[C@@H](N)Cc1ccc(O)cc1)[C@@H](C)O)[C@@H](C)O)[C@@H](C)CC)C(=O)N[C@@H](CCC(=O)O)C(=O)N[C@@H](CCCCN)C(=O)N[C@@H](CCCNC(=N)N)C(=O)N[C@@H](C)C(=O)NC(C)(C)C(=O)NC(C)(C)C(=O)N[C@@H](CCC(=O)O)C(=O)N[C@@H](Cc1ccccc1)C(=O)N[C@H](C(=O)N[C@@H](CCC(=O)O)C(=O)N[C@@H](Cc1c[nH]c2ccccc12)C(=O)N[C@@H](CC(C)C)C(=O)N[C@@H](CCCCN)C(=O)N[C@@H](CC(N)=O)C(=O)N[C@H](C(=O)NCC(=O)N1CCC[C@H]1C(=O)N[C@@H](CO)C(=O)N[C@@H](CO)C(=O)NCC(=O)N[C@@H](C)C(=O)N1CCC[C@H]1C(=O)N1CCC[C@H]1C(=O)N1CCC[C@H]1C(=O)N[C@@H](CO)C(N)=O)[C@@H](C)O)[C@@H](C)CC)C(=O)O
B5: exendin-4 peptide analogue SEQ ID NO: 18 (peptide)
peptide: Y[Aib]HGTFTSDLSIQK([γGlu-Stearoyl])EKRAA[Aib]EFIEWLKNTGPSSGAPPPS-NH2
modifications: N-terminus assumed
SMILES: CCCCCCCCCCCCCCCCCC(=O)N[C@@H](CCC(=O)NCCCC[C@H](NC(=O)[C@H](CCC(N)=O)NC(=O)[C@@H](NC(=O)[C@H](CO)NC(=O)[C@H](CC(C)C)NC(=O)[C@H](CC(=O)O)NC(=O)[C@H](CO)NC(=O)[C@@H](NC(=O)[C@H](Cc1ccccc1)NC(=O)[C@@H](NC(=O)CNC(=O)[C@H](Cc1c[nH]cn1)NC(=O)C(C)(C)NC(=O)[C@@H](N)Cc1ccc(O)cc1)[C@@H](C)O)[C@@H](C)O)[C@@H](C)CC)C(=O)N[C@@H](CCC(=O)O)C(=O)N[C@@H](CCCCN)C(=O)N[C@@H](CCCNC(=N)N)C(=O)N[C@@H](C)C(=O)N[C@@H](C)C(=O)NC(C)(C)C(=O)N[C@@H](CCC(=O)O)C(=O)N[C@@H](Cc1ccccc1)C(=O)N[C@H](C(=O)N[C@@H](CCC(=O)O)C(=O)N[C@@H](Cc1c[nH]c2ccccc12)C(=O)N[C@@H](CC(C)C)C(=O)N[C@@H](CCCCN)C(=O)N[C@@H](CC(N)=O)C(=O)N[C@H](C(=O)NCC(=O)N1CCC[C@H]1C(=O)N[C@@H](CO)C(=O)N[C@@H](CO)C(=O)NCC(=O)N[C@@H](C)C(=O)N1CCC[C@H]1C(=O)N1CCC[C@H]1C(=O)N1CCC[C@H]1C(=O)N[C@@H](CO)C(N)=O)[C@@H](C)O)[C@@H](C)CC)C(=O)O
B6: exendin-4 peptide analogue SEQ ID NO: 21 (peptide)
peptide: Y[Aib]QGTFTSDLSIQK(Palmitoyl)EQRAA[Aib]EFIEWLKNTGPSSGAPPPS-NH2
modifications: N-terminus assumed
SMILES: CCCCCCCCCCCCCCCC(=O)NCCCC[C@H](NC(=O)[C@H](CCC(N)=O)NC(=O)[C@@H](NC(=O)[C@H](CO)NC(=O)[C@H](CC(C)C)NC(=O)[C@H](CC(=O)O)NC(=O)[C@H](CO)NC(=O)[C@@H](NC(=O)[C@H](Cc1ccccc1)NC(=O)[C@@H](NC(=O)CNC(=O)[C@H](CCC(N)=O)NC(=O)C(C)(C)NC(=O)[C@@H](N)Cc1ccc(O)cc1)[C@@H](C)O)[C@@H](C)O)[C@@H](C)CC)C(=O)N[C@@H](CCC(=O)O)C(=O)N[C@@H](CCC(N)=O)C(=O)N[C@@H](CCCNC(=N)N)C(=O)N[C@@H](C)C(=O)N[C@@H](C)C(=O)NC(C)(C)C(=O)N[C@@H](CCC(=O)O)C(=O)N[C@@H](Cc1ccccc1)C(=O)N[C@H](C(=O)N[C@@H](CCC(=O)O)C(=O)N[C@@H](Cc1c[nH]c2ccccc12)C(=O)N[C@@H](CC(C)C)C(=O)N[C@@H](CCCCN)C(=O)N[C@@H](CC(N)=O)C(=O)N[C@H](C(=O)NCC(=O)N1CCC[C@H]1C(=O)N[C@@H](CO)C(=O)N[C@@H](CO)C(=O)NCC(=O)N[C@@H](C)C(=O)N1CCC[C@H]1C(=O)N1CCC[C@H]1C(=O)N1CCC[C@H]1C(=O)N[C@@H](CO)C(N)=O)[C@@H](C)O)[C@@H](C)CC

*1 amine or outer side, *2 acyl side, *3 side chain or, on linkers, in order; H or OH if unused. Where no end group is shown, it is not given here. Side-chain parts run from the residue outwards. [ ]: non-standard residue; d: D form. The star is where a group is joined. γGlu = O=C(O)[C@H](CCC(=O)[*:2])N[*:1]; Stearoyl = CCCCCCCCCCCCCCCCCC(=O)*; Palmitoyl = CCCCCCCCCCCCCCCC(=O)*; Aib = CC(C)(N)C(=O)O

One test deals with human glucagon receptor (human, UniProt P47871 26-477). The test is described as follows: cell-based or functional assay.
Sequence of human glucagon receptor (P47871 26-477): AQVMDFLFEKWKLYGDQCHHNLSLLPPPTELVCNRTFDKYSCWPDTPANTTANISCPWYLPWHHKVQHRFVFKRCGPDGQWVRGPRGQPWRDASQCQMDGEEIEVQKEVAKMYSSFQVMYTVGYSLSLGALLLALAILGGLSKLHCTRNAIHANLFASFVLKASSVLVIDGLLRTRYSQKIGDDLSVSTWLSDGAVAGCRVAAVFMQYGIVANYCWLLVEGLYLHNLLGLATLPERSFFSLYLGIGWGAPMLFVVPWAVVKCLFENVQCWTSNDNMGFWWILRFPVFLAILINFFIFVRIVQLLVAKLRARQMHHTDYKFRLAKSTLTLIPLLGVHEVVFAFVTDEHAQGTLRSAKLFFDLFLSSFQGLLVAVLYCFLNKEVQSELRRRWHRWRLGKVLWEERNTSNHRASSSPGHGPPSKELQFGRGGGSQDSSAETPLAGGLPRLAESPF
Turning to B1, the “EC50 hGLUC R” value is 0.137 nM.
For B2, the “EC50 hGLUC R” value worked out at 18.2 nM.
Same read-out and setting: in the case of B3 it was 0.312 nM; in that of B4, 2.21 nM.
B5: the “EC50 hGLUC R” value stood at 0.0095 nM.
Take B6: the “EC50 hGLUC R” value was 0.674 nM.

Another test addresses T1, human GIP receptor. The test is described as follows: cell-based or functional assay.
For B1, the “EC50 hGIP R” value amounted to 0.0915 nM.
Same read-out and setting: in the case of B2 it was 0.0163 nM.
Turning to B3, the “EC50 hGIP R” value is 0.135 nM.
As to B4, the “EC50 hGIP R” value is 0.102 nM.
Consider B5, for which the “EC50 hGIP R” value is 0.0095 nM.
On to B6, for which the “EC50 hGIP R” value worked out at 0.189 nM.

The next test has as its target human GLP-1 receptor (human, UniProt P43220 24-463). The test is described as follows: cell-based or functional assay.
With B1, the “EC50 hGLP-1 R” value amounted to 0.0085 nM.
For B2, the “EC50 hGLP-1 R” value turned out to be 0.0082 nM.
As to B3, the “EC50 hGLP-1 R” value is 0.0092 nM.
As to B4, the “EC50 hGLP-1 R” value came to 0.0085 nM.
For B5, the “EC50 hGLP-1 R” value came to 0.0183 nM.
As for B6, the “EC50 hGLP-1 R” value worked out at 0.037 nM.
